Target: T1, extracellular domain (residues 21-643) of the human ErbB3 receptor (Homo sapiens, UniProt P21860)
T1 construct: ErbB3 receptor (HER3), human, extracellular domain, residues 21-643; The ErbB3 gene fragment is followed by a hexahistidine tag and a FLAG-tag; also called HER3; extracellular domain of ErbB3; source: CHO-T-HC cells, transfected (pEE vector), purified from culture fluid (HisTrap HP, Superdex 200 SEC)
Assay: SPR; Biacore T200; ErbB3 extracellular domain immobilised on CM5 chip by amine coupling; BCD090-M2 injected at 1 uM down to 0.49 nM in 10 mM HEPES pH 7.4, 0.15 M NaCl, 50 ug/ml BSA; 37°C; equilibrium fit of response against concentration; mean of three experiments
Conditions: both partners purified

T1 sequence (P21860 21-643): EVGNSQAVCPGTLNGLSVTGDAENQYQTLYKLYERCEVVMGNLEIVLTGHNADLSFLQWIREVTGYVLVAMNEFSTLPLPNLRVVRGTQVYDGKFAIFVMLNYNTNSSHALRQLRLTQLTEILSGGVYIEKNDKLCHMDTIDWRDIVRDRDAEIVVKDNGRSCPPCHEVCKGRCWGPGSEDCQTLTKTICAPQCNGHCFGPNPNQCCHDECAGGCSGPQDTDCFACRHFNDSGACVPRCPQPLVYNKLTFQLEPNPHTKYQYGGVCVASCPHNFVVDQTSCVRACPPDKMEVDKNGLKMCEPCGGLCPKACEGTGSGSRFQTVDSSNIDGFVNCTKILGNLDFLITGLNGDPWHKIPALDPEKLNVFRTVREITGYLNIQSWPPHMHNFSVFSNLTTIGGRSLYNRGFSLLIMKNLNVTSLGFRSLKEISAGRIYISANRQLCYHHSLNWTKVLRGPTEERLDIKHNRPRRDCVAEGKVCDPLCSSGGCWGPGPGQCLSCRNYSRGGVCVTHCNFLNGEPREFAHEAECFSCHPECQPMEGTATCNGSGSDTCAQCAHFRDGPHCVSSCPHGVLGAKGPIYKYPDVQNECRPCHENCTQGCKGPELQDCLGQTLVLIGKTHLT

B1: llama VHH antibody BCD090-M2 (VHH)
VHH: QVQLVQSGGGLVQAGGSLRLSCAFSGRTFSMYTMGWFRQAPGKEREFVAANRGRGLSPDIADSVNGRFTISRDNAKNTLYLQMDSLKPEDTAVYYCAADLQYGSSWPQRSSAEYDYWGQGTTVTVSS
notes: 128 residues in the PDB entries; a single additional N-terminal glycine is left from the TEV recognition site; Selected by phage display from immunized llamas; also called VHH fragment of the antibody BCD090-M2; not shown: His6, N-terminal, cleaved; SUMO, N-terminal, cleaved
  Kd: 15 ± 1 nM
